This is an account of results in EP4778939A1 (Jiangsu Hengrui Pharmaceuticals Co., Ltd., dated 2026).

For this assay, the target named is human GPRC5D (human, UniProt Q9NZD1 1-345). Put plainly: cell-based or functional assay.
Chain of human GPRC5D (Q9NZD1 whole entry): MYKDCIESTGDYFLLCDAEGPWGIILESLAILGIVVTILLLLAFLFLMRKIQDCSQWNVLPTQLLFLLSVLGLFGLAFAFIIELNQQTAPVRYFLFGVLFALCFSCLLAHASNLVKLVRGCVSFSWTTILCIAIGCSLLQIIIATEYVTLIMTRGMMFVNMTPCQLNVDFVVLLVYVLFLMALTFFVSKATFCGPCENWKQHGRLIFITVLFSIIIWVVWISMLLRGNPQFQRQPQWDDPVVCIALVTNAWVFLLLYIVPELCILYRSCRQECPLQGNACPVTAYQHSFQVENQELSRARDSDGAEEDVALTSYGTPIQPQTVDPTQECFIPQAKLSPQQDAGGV

B1: F4-0G4S-1 (bispecific antibody)
heavy 1: not shown
light 1: not shown
heavy 2: EVQLVQSGAEVKKPGASVKVSCKVSGYTFTDYPIHWMRQAPGQGLEWMGYVFPRDGSTKYNEKFRVRVTWTADKSTSTVYMELSSLRSEDTAVYYCSRELTAYWGQGTTVTVSSASTKGPSVFPLAPSSKSTSGGTAALGCLVKDYFPEPVTVSWNSGALTSGVHTFPAVLQSSGLYSLSSVVTVPSSSLGTQTYICNVNHKPSNTKVDKKVEPKSCDKTHTCPPCPAPEAAGGPSVFLFPPKPKDTLMISRTPEVTCVVVDVSHEDPEVKFNWYVDGVEVHNAKTKPREEQYNSTYRVVSVLTVLHQDWLNGKEYKCKVSNKALPAPIEKTISKAKGQPREPQVCTLPPSRDELTKNQVSLSCAVKGFYPSDIAVEWESNGQPENNYKTTPPVLDSDGSFFLVSKLTVDKSRWQQGNVFSCSVMHEALHNHYTQKSLSLSPGK
light 2: DVVLTQSPLSLPVTLGQPASISCKSSQSLLHSSGKTYLNWLLQRPGQSPRRLIYLVSKLDSGVPDRFSGSGSGTDFTLKISRVEAEDVGVYYCAQGTHFPRTFGGGTKVEIKRTVAAPSVFIFPPSDEQLKSGTASVVCLLNNFYPREAKVQWKVDNALQSGNSQESVTEQDSKDSTYSLSSTLTLSKADYEKHKVYACEVTHQGLSSPVTKSFNRGEC
In the case of B1, the “EC50 ratio (relative to JNJ-64407564), cytotoxic activity against NCI-H929” value was 0.09 ratio.

B2: F2-0G4S-1 (bispecific antibody)
heavy 1: not shown
light 1: DVVMTQTPLSLSVTPGQPASISCRSSQSLVHSQGNTYLYWYLQKPGQSPKLLIYKVSNRFSGVPDRFSGSGSGTDFTLKISRVEAEDVGVYYCSQSTHVPPLTFGQGTKLEIKRTVAAPSVFIFPPSDEQLKSGTASVVCLLNNFYPREAKVQWKVDNALQSGNSQESVTEQDSKDSTYSLSSTLTLSKADYEKHKVYACEVTHQGLSSPVTKSFNRGEC
heavy 2: not shown
light 2: not shown
Regarding B2, the “EC50 ratio (relative to JNJ-64407564), cytotoxic activity against NCI-H929” value is 0.57 ratio.
